{
  "source": "FireProtDB",
  "parents": {"B1": {"name": "Ribonuclease HI, P0A7Y4 (parent)", "chain": "MLKQVEIFTDGSCLGNPGPGGYGAILRYRGREKTFSAGYTRTTNNRMELMAAIVALEALKEHCEVILSTDSQYVRQGITQWIHNWKKRGWKTADKKPVKNVDLWQRLDAALGQHQIKWEWVKGHAGHPENERCDELARAAAMNPTLEDTGYQVEV"}},
  "data": [
    {"variants_of": "B1", "details": "Escherichia coli (strain K12); pH 3; 50.1 °C; Thermal; CD; glycine-HCl 10 mM; NaCl 0.1 M; reversible: yes; structure 2RN2; whole UniProt chain shown", "units": {"ddG of mutation (higher = less stable)": "kcal/mol"}, "values": [
      {"variant": "MLKQVEIFTDGSCLGNPGPGGYAAILRYRGREKTFSAGYTRTTNNRMELMAAIVALEALKEHCEVILSTDSQYVRQGITQWIHNWKKRGWKTADKKPVKNVDLWQRLDAALGQHQIKWEWVKGHAGHPENERCDELARAAAMNPTLEDTGYQVEV", "note": "[G23A]", "ddG of mutation (higher = less stable)": -0.7},
      {"variant": "MLKQVEIFTDGSCLGNPGPGGYGVILRYRGREKTFSAGYTRTTNNRMELMAAIVALEALKEHCEVILSTDSQYVRQGITQWIHNWKKRGWKTADKKPVKNVDLWQRLDAALGQHQIKWEWVKGHAGHPENERCDELARAAAMNPTLEDTGYQVEV", "note": "[A24V]", "ddG of mutation (higher = less stable)": -0.73},
      {"variant": "MLKQVEIFTDGSCLGNPGPGGYGAILRYRGREKTFSAGYTCTTNNRMELMAAIVALEALKEHCEVILSTDSQYVRQGITQWIHNWKKRGWKTADKKPVKNVDLWQRLDAALGQHQIKWEWVKGHAGHPENERCDELARAAAMNPTLEDTGYQVEV", "note": "[R41C]", "ddG of mutation (higher = less stable)": -0.12},
      {"variant": "MLKQVEIFTDGSCLGNPGPGGYGAILRYRGREKTFSAGYTRTTNNRMELMAVIVALEALKEHCEVILSTDSQYVRQGITQWIHNWKKRGWKTADKKPVKNVDLWQRLDAALGQHQIKWEWVKGHAGHPENERCDELARAAAMNPTLEDTGYQVEV", "note": "[A52V]", "ddG of mutation (higher = less stable)": -1.7},
      {"variant": "MLKQVEIFTDGSCLGNPGPGGYGAILRYRGREKTFSAGYTRTTNNRMELMAAIVALEALKEDCEVILSTDSQYVRQGITQWIHNWKKRGWKTADKKPVKNVDLWQRLDAALGQHQIKWEWVKGHAGHPENERCDELARAAAMNPTLEDTGYQVEV", "note": "[H62D]", "ddG of mutation (higher = less stable)": -0.67},
      {"variant": "MLKQVEIFTDGSCLGNPGPGGYGAILRYRGREKTFSAGYARTTNNRMELMAAIVALEALKEPCEVILSTDSQYVRQGITQWIHNWKKRGWKTADKKPVKNVDLWQRLDAALGQHQIKWEWVRGHAGHPENERCDELARAAAMNPTLEDTGYQVEV", "note": "[H62P T40A K122R]", "ddG of mutation (higher = less stable)": -0.52}
    ]},
    {"variants_of": "B1", "details": "Escherichia coli (strain K12); pH 3; Thermal; CD; glycine-HCl 10 mM; NaCl 0.1 M; reversible: yes; structure 2RN2; whole UniProt chain shown", "units": {"Tm": "°C", "change of melting temperature, mutant - wild type (higher = more stable)": "°C", "unfolding enthalpy (van 't Hoff)": "kcal/mol"}, "values": [
      {"variant": "MLKQVEIFTDGSCLGNPGPGGYAAILRYRGREKTFSAGYTRTTNNRMELMAAIVALEALKEHCEVILSTDSQYVRQGITQWIHNWKKRGWKTADKKPVKNVDLWQRLDAALGQHQIKWEWVKGHAGHPENERCDELARAAAMNPTLEDTGYQVEV", "note": "[G23A]", "Tm": 52.4, "change of melting temperature, mutant - wild type (higher = more stable)": 2.3, "unfolding enthalpy (van 't Hoff)": 99.3},
      {"variant": "MLKQVEIFTDGSCLGNPGPGGYGVILRYRGREKTFSAGYTRTTNNRMELMAAIVALEALKEHCEVILSTDSQYVRQGITQWIHNWKKRGWKTADKKPVKNVDLWQRLDAALGQHQIKWEWVKGHAGHPENERCDELARAAAMNPTLEDTGYQVEV", "note": "[A24V]", "Tm": 52.5, "change of melting temperature, mutant - wild type (higher = more stable)": 2.4, "unfolding enthalpy (van 't Hoff)": 109},
      {"variant": "MLKQVEIFTDGSCLGNPGPGGYGAILRYRGREKTFSAGYTRTTNNRMELMAVIVALEALKEHCEVILSTDSQYVRQGITQWIHNWKKRGWKTADKKPVKNVDLWQRLDAALGQHQIKWEWVKGHAGHPENERCDELARAAAMNPTLEDTGYQVEV", "note": "[A52V]", "Tm": 55.6, "change of melting temperature, mutant - wild type (higher = more stable)": 5.5, "unfolding enthalpy (van 't Hoff)": 128},
      {"variant": "MLKQVEIFTDGSCLGNPGPGGYGAILRYRGREKTFSAGYTRTTNNRMELMAAIVALEALKEDCEVILSTDSQYVRQGITQWIHNWKKRGWKTADKKPVKNVDLWQRLDAALGQHQIKWEWVKGHAGHPENERCDELARAAAMNPTLEDTGYQVEV", "note": "[H62D]", "Tm": 52.3, "change of melting temperature, mutant - wild type (higher = more stable)": 2.2, "unfolding enthalpy (van 't Hoff)": 118},
      {"variant": "MLKQVEIFTDGSCLGNPGPGGYGAILRYRGREKTFSAGYARTTNNRMELMAAIVALEALKEPCEVILSTDSQYVRQGITQWIHNWKKRGWKTADKKPVKNVDLWQRLDAALGQHQIKWEWVRGHAGHPENERCDELARAAAMNPTLEDTGYQVEV", "note": "[H62P T40A K122R]", "Tm": 51.8, "change of melting temperature, mutant - wild type (higher = more stable)": 1.7, "unfolding enthalpy (van 't Hoff)": 109}
    ]},
    {"variants_of": "B1", "details": "Escherichia coli (strain K12); pH 5.5; Thermal; CD; Sodium acetate 20 mM; NaCl 0.1 M; reversible: yes; structure 2RN2; whole UniProt chain shown", "units": {"Tm": "°C", "change of melting temperature, mutant - wild type (higher = more stable)": "°C", "unfolding enthalpy (van 't Hoff)": "kcal/mol"}, "values": [
      {"variant": "MLKQVEIFTDGSCLGNPGPGGYAAILRYRGREKTFSAGYTRTTNNRMELMAAIVALEALKEHCEVILSTDSQYVRQGITQWIHNWKKRGWKTADKKPVKNVDLWQRLDAALGQHQIKWEWVKGHAGHPENERCDELARAAAMNPTLEDTGYQVEV", "note": "[G23A]", "Tm": 54.5, "change of melting temperature, mutant - wild type (higher = more stable)": 1.8, "unfolding enthalpy (van 't Hoff)": 91.8},
      {"variant": "MLKQVEIFTDGSCLGNPGPGGYGVILRYRGREKTFSAGYTRTTNNRMELMAAIVALEALKEHCEVILSTDSQYVRQGITQWIHNWKKRGWKTADKKPVKNVDLWQRLDAALGQHQIKWEWVKGHAGHPENERCDELARAAAMNPTLEDTGYQVEV", "note": "[A24V]", "Tm": 55.9, "change of melting temperature, mutant - wild type (higher = more stable)": 3.2, "unfolding enthalpy (van 't Hoff)": 101},
      {"variant": "MLKQVEIFTDGSCLGNPGPGGYGAILRYRGREKTFSAGYTCTTNNRMELMAAIVALEALKEHCEVILSTDSQYVRQGITQWIHNWKKRGWKTADKKPVKNVDLWQRLDAALGQHQIKWEWVKGHAGHPENERCDELARAAAMNPTLEDTGYQVEV", "note": "[R41C]", "Tm": 54.3, "change of melting temperature, mutant - wild type (higher = more stable)": 1.6, "unfolding enthalpy (van 't Hoff)": 102},
      {"variant": "MLKQVEIFTDGSCLGNPGPGGYGAILRYRGREKTFSAGYTRTTNNRMELMAVIVALEALKEHCEVILSTDSQYVRQGITQWIHNWKKRGWKTADKKPVKNVDLWQRLDAALGQHQIKWEWVKGHAGHPENERCDELARAAAMNPTLEDTGYQVEV", "note": "[A52V]", "Tm": 60.5, "change of melting temperature, mutant - wild type (higher = more stable)": 7.8, "unfolding enthalpy (van 't Hoff)": 87.5},
      {"variant": "MLKQVEIFTDGSCLGNPGPGGYGAILRYRGREKTFSAGYTRTTNNRMELMAAIVALEALKEDCEVILSTDSQYVRQGITQWIHNWKKRGWKTADKKPVKNVDLWQRLDAALGQHQIKWEWVKGHAGHPENERCDELARAAAMNPTLEDTGYQVEV", "note": "[H62D]", "Tm": 52.1, "change of melting temperature, mutant - wild type (higher = more stable)": -0.6, "unfolding enthalpy (van 't Hoff)": 97.8},
      {"variant": "MLKQVEIFTDGSCLGNPGPGGYGAILRYRGREKTFSAGYARTTNNRMELMAAIVALEALKEPCEVILSTDSQYVRQGITQWIHNWKKRGWKTADKKPVKNVDLWQRLDAALGQHQIKWEWVRGHAGHPENERCDELARAAAMNPTLEDTGYQVEV", "note": "[H62P T40A K122R]", "Tm": 55.8, "change of melting temperature, mutant - wild type (higher = more stable)": 3.1, "unfolding enthalpy (van 't Hoff)": 96.9}
    ]},
    {"variants_of": "B1", "details": "Escherichia coli (strain K12); pH 5.5; 52.7 °C; Thermal; CD; Sodium acetate 20 mM; NaCl 0.1 M; reversible: yes; structure 2RN2; whole UniProt chain shown", "units": {"ddG of mutation (higher = less stable)": "kcal/mol"}, "values": [
      {"variant": "MLKQVEIFTDGSCLGNPGPGGYGAILRYRGREKTFSAGYTCTTNNRMELMAAIVALEALKEHCEVILSTDSQYVRQGITQWIHNWKKRGWKTADKKPVKNVDLWQRLDAALGQHQIKWEWVKGHAGHPENERCDELARAAAMNPTLEDTGYQVEV", "note": "[R41C]", "ddG of mutation (higher = less stable)": -0.44}
    ]}
  ]
}
